Reference: patent publication US20200239597A1, “AN ANTI-APOPTOTIC FUNCTION OF PKM2 AND INTRACELLULARLY EXPRESSED SCFV ANTIBODIES” (La Jolla Institute for Allergy and Immunology, priority 2017, published 2020)

Tests used:
PKM2 (K270M) = target: T1, PKM2 (K270M) (Homo sapiens, UniProt P14618, K270M); experiment: Pyruvate kinase assay, PKM2 (K270M); assay type: biochemical; details: high concentrations of scFv 5
T1 construct: His (N); made in house; host or cells: Escherichia coli BL21(DE3)
Protocol: (§1) Activity was measured by Kinase-Glo® Plus Luminescent Kinase Assay kit (promega), using ADP and PEP as substrates), with PKM2 at 50 nM. Shown are values with the basal activity of PKM2 alone subtracted out.
(§2) Pyruvate kinase activity was measured by using Kinase-Glo® Plus Luminescent Kinase Assay kit (Promega). 50-100 nM of purified WT or mutant PKM2 was added in 100 μl assay buffer containing 50 mM Tris pH7.5, 100 mM KCl, 10 mM MgCl2, 200 μM PEP, 200 μM ADP, and 3% DMSO. After a 15-min incubation, Kinase-Glo Plus™ reagent (Promega Corporation, Madison, Wis., USA) was added, according to the manufacturer's instructions. In some cases, 0-40 μM fructose 1,6-bisphosphate (FBP) and 0-150 nM scFv 5 were added.

MEFs = experiment: BimS-resistant clonogenic survival in MEFs; assay type: cell-based, mouse
Protocol: The plates were fixed and stained with crystal violet after 1 week and the total area of colonies were counted as above. The SD and P value was calculated from 6 individual plates.
WT, Mfn1- or Mfn2-deficient MEFs were infected or not with IB5 lentivirus, then 1×10^5 cells were plated and transfected with BimS expression plasmid. The plates were fixed and stained with crystal violet after 1 week and the total areas of colonies were measured as above. Mean, SD and P values were calculated from 5 individual plates.
Cell viability was measured with a Countess™ Automated Cell Counter (Invitrogen) using trypan blue. For the clonogenic survival assay, 293T or MEFs cells were seeded in 6-well plates at 1×10^5 cells/well in a 2-ml volume, transfected with BimS cDNA and incubated for 24 h. Afterwards, the medium was replaced and the cells cultured for 3-4 days. Thereafter, the plates were rinsed with PBS and fixed and stained with a solution containing crystal violet (0.5% w/v) and glutaraldehyde (6% v/v) as described (Franken et al., 2006).

PKM2 (K422R) = target: T2, PKM2 (K422R) (Homo sapiens, UniProt P14618, K422R); experiment: Pyruvate kinase assay, PKM2 (K422R); assay type: biochemical
T2 construct: His; made in house; host or cells: Escherichia coli BL21(DE3) (stated generally for WT and mutant PKM2)
Protocol: as §1, §2

Bax = Bax (Homo sapiens, UniProt Q07812); experiment: In vitro Bax/cBid membrane permeabilization in liposomes or Xenopus egg mitochondrial outer membrane vesicles; assay type: biochemical; details: recombinant scFv 5 added together with PKM2; not shown
From the text: Because no cytoprotective effect was seen when PKM2 was stimulated with allosteric activator TEPP-46 alone, or when PKM2 was replaced with the constitutively active PKIM1 (FIG. 3), the present inventors conclude that increased pyruvate kinase activity per se was insufficient for the cell survival effect induced by IB5. To test whether IB5:PIKM2 complexes could affect pro-apoptotic Bcl-2 family proteins directly, the present inventors used their own previously well-validated in vitro systems that recapitulate Bcl-2 family protein function in membranes. Here, recombinant Bax and cleaved Bid (cBid) proteins are incubated with protein-free liposomes or with isolated Xenopus egg mitochondrial outer membrane vesicles. Bax then becomes inserted into the membranes and forms large pores that recapitulate MOMP as it occurs within cells (Gillies et al., 2015; Kuwana et al., 2002; Kuwana et al., 2016; Schafer et al., 2009). The present inventors observed no effect of adding recombinant scFv 5 and PKIVI2 to these systems (not shown). Thus, the inventors saw no evidence that PKM2 acts directly on the process of Bax/Bak-mediated MOMP.

[1] = target: T3, pyruvate kinase M2 (PKM2) (Homo sapiens, UniProt P14618); experiment: Target protein immunoprecipitation (FLAG pull-down, mass spectrometry, immunoblot); assay type: binding; details: Triton X-100 extracts of 293T cells, anti-FLAG beads
T3 construct: some intrabodies precipitated specific cellular proteins; endogenous in cells; host or cells: HEK293T (293T)
Protocol: FIG. 1 C is a photograph of a non-limiting SDS-PAGE gel with silver stain from an immunoprecipitation assay using antibodies encoded by DNA sequences isolated from FIG. 1B. […] Intrabodies that rescued cells from BimS-induced death were chosen for pull-down analysis as described in Methods. Left panel: Triton™-X-100 (1%) cell extracts were incubated with anti-FLAG beads, then proteins eluted with 3×FLAG peptide and separated by SDS-PAGE with silver stain. Specific bands are marked with dots; some bands (e.g. at 37 and 70 kD) are nonspecific. […] The bands near 25 kD are the scFv polypeptides, whose expression levels varied.
Flag-tagged intrabody was introduced along with a tandem Strep-tag by PCR into the same lentiviral vector used for selection. 293T cells infected with the intrabody lentivirus were incubated at 30° C. for 72 h as described above. After washing with cold PBS, 5×10^8 cells were lysed for 15 minutes on ice in lysis buffer (50 mM Tris HCl, pH 7.4, 150 mM NaCl, 1 mM EDTA, 1% Triton™ X-100). Cell lysates were clarified by centrifugation for 15 minutes at 4° C. at 16,000×g. The total protein content of the soluble fraction was quantified using the BCA assay. For pull-down experiments, 10 mg of protein lysate was incubated with 200 al of EZview™ Red anti-FLAG® M2 Affini-ty Gel (Sigma-Aldrich) for 2 h at 4° C. Beads were washed 3 times in wash buffer (50 mM Tris HCl, pH 7.4, 150 mM NaCl, 1 mM EDTA, 0.1% Triton X-100). Elution was performed under native conditions by competition with 3×FLAG peptide following the manufacturer's protocol. Eluates were used for the second step purification using Strep-Tactin Superflow Plus™ [Qiagen], following the manufacturer's instructions. The final two-step purified protein was used for SDS-PAGE analysis. Bands of interest were cut out from the gel and subjected to in-gel digestion with trypsin (Promega, Fitchburg, Wis., USA) followed by MALDI TOF/TOF mass spectrometry analysis (Biomolecular and Proteomics Mass Spectrometry Facility, University of California at San Diego).

T2 sequence (P14618 whole entry K422R): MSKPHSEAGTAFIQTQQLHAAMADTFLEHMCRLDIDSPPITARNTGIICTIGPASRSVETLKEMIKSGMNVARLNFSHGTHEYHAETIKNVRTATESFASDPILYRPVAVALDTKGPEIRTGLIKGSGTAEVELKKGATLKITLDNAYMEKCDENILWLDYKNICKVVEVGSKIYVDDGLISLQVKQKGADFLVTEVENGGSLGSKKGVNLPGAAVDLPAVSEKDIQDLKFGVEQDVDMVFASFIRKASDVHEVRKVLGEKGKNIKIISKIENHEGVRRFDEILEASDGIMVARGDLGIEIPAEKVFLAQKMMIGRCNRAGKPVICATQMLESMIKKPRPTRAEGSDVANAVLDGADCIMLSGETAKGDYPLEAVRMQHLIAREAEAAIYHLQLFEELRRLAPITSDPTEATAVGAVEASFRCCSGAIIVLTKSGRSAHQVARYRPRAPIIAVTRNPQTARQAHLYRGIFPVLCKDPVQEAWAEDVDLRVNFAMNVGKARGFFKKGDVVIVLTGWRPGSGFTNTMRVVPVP
T1 sequence (P14618 whole entry K270M): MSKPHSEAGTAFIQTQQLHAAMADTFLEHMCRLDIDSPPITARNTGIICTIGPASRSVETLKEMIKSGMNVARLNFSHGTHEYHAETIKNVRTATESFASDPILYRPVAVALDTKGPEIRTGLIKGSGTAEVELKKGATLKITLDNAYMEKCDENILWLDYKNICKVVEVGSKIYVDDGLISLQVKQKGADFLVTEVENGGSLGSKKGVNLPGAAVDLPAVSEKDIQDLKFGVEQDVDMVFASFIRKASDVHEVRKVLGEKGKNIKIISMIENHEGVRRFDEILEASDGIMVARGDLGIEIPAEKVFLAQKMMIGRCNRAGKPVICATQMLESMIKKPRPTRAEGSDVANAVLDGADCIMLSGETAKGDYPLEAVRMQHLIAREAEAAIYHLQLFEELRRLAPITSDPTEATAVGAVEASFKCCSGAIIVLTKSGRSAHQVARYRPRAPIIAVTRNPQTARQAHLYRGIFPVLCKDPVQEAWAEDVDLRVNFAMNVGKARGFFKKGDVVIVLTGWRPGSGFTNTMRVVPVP
Chain of Bax (Q07812 whole entry, species assumed): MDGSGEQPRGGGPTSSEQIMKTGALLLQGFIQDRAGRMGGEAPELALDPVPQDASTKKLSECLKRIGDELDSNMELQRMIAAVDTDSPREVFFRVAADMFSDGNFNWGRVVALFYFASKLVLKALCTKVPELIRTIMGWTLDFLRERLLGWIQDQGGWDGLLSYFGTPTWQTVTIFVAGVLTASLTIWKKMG
T3 sequence (P14618 whole entry): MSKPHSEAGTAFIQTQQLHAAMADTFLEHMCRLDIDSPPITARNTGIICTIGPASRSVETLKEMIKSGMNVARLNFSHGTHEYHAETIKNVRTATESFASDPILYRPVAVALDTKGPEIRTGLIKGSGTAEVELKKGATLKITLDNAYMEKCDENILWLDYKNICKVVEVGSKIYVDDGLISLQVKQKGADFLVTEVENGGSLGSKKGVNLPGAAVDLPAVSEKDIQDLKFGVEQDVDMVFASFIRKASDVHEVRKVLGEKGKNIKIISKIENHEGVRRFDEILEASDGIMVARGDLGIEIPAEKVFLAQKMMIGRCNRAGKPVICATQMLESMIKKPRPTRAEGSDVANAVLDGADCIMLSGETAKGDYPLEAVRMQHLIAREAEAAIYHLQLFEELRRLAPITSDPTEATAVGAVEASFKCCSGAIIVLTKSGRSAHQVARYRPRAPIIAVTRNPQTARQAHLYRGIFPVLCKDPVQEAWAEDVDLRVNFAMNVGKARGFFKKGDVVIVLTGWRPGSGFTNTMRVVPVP

B1: IB5: intracellularly expressed single-chain antibody (scFv) specific for PKM2, SEQ ID NO: 2; also made as monovalent recombinant scFv in E. coli (protein)
scFv: MAQVQLVETGPGLVKPSETLSLRCTVSGGSFDNYYWNWIRQPPGKGLEYIGYVFPSTGATNYNPSLGSRVTISLDTSKNQFSLTLTSVTTADTAIYYCVRSGHDLWTGSTWFDPWGQWTTVTVSSGGGGSGGGGSGGGGSEIVLTQSPGTLSLSPGERATLSCRASQSVSSSYLAWYQQKPGQAPRLLIYGASSRATGIPDRFSGSGSGTDFTLTISRLEPEDIAVYYCQQRSNWPRTFGQGTKVEIKRGLGGLASVDYKDDDDK
modifications: artificial intrabody clone 5
notes: also made as monovalent recombinant scFv in E. coli
PKM2 (K270M)
  catalytic activity of PKM2 (K270M): increased the catalytic activity
MEFs; Mfn1-deficient MEFs
  rescue from BimS-induced clonogenic death: failed to rescue
MEFs; Mfn2-null MEFs
  rescue from BimS-induced death (clonogenic): rescued
MEFs; WT MEFs
  rescue from BimS-induced death (clonogenic): rescued
MEFs; early passage MEFs with PKM2 (K422R)
  clonogenic survival: enhanced clonogenic survival
MEFs; later-passage MEFs with PKM2 (K422R)
  clonogenic survival: further enhanced
PKM2 (K422R)
  glycolytic activity of PKM2 (K422R): stimulated the glycolytic activity of PKM2 (K422R) in a concentration-dependent manner
PKM2 (K422R); high concentrations of scFv 5
  activity of PKM2 (K422R) compared with WT PKM2: at least equal to that of WT PKM2
Bax
  effect on Bax-mediated membrane pore formation (MOMP) in vitro: no effect
[1]
  protein pulled down from cell extracts: pulled down a 55-kD protein now identified as pyruvate kinase M2
